# Measured values taken from patent US20220267462A1 (HARPOON THERAPEUTICS, published 2022).
# Where a chain is given by its changes, count along the chain named.
# T1: cynomolgus EpCAM protein (cynomolgus, UniProt Q1WER1 27-265 (rhesus entry), limits assumed, biotinylated in the Octet assays (site not stated))
# T1 construct: also called cy EpCAM; biotinylated cynomolgus EpCAM protein
# T1 sequence: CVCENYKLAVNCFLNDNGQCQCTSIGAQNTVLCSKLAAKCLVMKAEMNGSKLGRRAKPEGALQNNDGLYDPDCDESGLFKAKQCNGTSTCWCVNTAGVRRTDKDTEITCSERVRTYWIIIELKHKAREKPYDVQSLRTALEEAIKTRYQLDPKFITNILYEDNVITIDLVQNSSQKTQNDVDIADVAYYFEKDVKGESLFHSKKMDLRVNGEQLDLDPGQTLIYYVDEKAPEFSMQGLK
# T2: human EpCAM protein (human, UniProt P16422 24-265, biotinylated in the Octet assays (site not stated))
# T2 construct: also called hu EpCAM; biotinylated human EpCAM protein
# T2 sequence: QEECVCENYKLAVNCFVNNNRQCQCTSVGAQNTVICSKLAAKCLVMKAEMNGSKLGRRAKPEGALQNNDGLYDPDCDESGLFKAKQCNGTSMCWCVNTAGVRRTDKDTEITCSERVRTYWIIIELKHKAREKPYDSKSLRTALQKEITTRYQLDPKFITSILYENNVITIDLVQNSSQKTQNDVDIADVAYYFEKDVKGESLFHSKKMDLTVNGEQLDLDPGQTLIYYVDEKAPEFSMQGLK
# B1: EPL78 (VHH)
# VHH: QVQLQESGGGLVQPGGSLRLSCATSANRFNINVMGWYRQAPGQQRELVATINIGGSTDYADSVKGRFTISRDNAKNTVYLQLSDLKPEDTAVYYCNVKLRVSGPTGPNVYWGQGTQVTVSS
# B2: EPL10 (VHH)
# VHH: QVQLQESGGGLVQAGGSLRLSCAASGSVFRANVMGWYRQAPGKQHELVARIDPGGTTTYADPVKGRFTISRDNAKKTVYLQMNSLKPDDTAVYYCNAIILLSGGPKDYWGQGTQVTVSS
# B3: EPL49 (VHH)
# VHH: QVQLQESGGGLVQAGGSLRLSCAPSGRTSSIFGMGWFRQAPGKEREFVASINWSGGSTSYADSVKGRFTISRDNAKNEMYLQMNSLKFEDTAVYVCAAAVLTNKPSWNFWGQGTQVTVSS
# B4: EPL127 (VHH)
# VHH: QVQLQESGGGLVQAGGSLRLSCAAPGFAFNDHAILWFRQAPGKEREGVSEICRDGTTYYTDSVKGRFTISSDNAKNTVYLQMNSVKTDDTAVYYCAVDRRRYYCSGNRAFSSDYYYWGQGTQVTVSS
# B5: EPL152 (VHH)
# VHH: QVQLQESGGGLVQAGGSLRLSCVHSGSIFRASTMAWYRQAPGKQRELVAQIMSGGGTNYAGSVKGRFTISRDNANNTVYLQMNSLKPEDTAVYYCNAAQITSWGPKVYWGQGTQVTVSS
# B6: EPL58 (VHH)
# VHH: QVQLQESGGGLVQAGGSLRLSCAASGPIFSDTIRTMGWYRQAAGKQRELVATIASFPSRTNYVDSVKGRFTISRDIAKNTVYLQMDSLKPEDTAVYYCNVDLASIPTKTYWGQGTQVTVSS
# B7: EPL138 (VHH)
# VHH: QVQLQESGGGLVQAGGSLRLSCAASGFIFRAASMDWYRQFPGNERESIATISSGGFTNYADSVKGRFTISRDNAKNTVYLQMNSLKPEDTAVYFCGATFLRSDGHHTINGQGTQVTVSS
# B8: EPL109 (VHH)
# VHH: QVQLQESGGGLVQPGGSLRLSCASSGFTLDDYTIGWFRQAPGKEREGVSCISRRDDSTYYADSVKGRFTISRDNAKNTVDLQMISLRPEDTAVYYCAATPRSYTLRCLGKFDFQGQGTQVTVSS
# B9: EPL82 (VHH)
# VHH: QVQLQESGGGLVQAGGSLKLSCTASGTILSTMAWYRQAPGKQRELVATISRGGTTNYSDSVKGRFAISRDSTKNTVYLQMNSLKPEDTAVYYCNTPLTDYGMGYNWGQGTQVTVSS
# B10: EPL189 (VHH)
# VHH: QVQLQESGGGLVQPGGSLRLSCAASGRINSINTMGWYRQAPGNQRELVAEITRGGTTNYADSVQGRYAISRDNAKNLVYLQMNSLKPEDTDVYYCNAQTFPTFSRPTGLDYWGQGTQVTVSS
# B11: EPL117 (VHH)
# VHH: QVQLQESGGGLVQAGGSLRLSCAASGNIVRMTNMAWYRQAPGKQREFVATISAGGSTTYVDSVKDRFTISRDNTKNTVYLQMNYLKPEDTAVYYCATGSILTNRGAIPGSWGHGTQVTVSS
# B12: EPL83 (VHH)
# VHH: QVQLQESGGGLVQAGGSLRLSCAVSGSIFSLNTLAWYRQAPGRQRDLIARITGGGTTVYADSVKGRFTISRDNAKNTVYLQMNSLKPEDTAVYYCNLMVRHPSGSTYEYWGQGTQVTVSS
# B13: EPL31 (VHH)
# VHH: QVQLQESGGGLVHTGGSLRLSCAASGDTFLRYAMGWFRQAPGKEREFVAAITWNGGNTDYAGSLKGRFTISRDNTKNTVYLQMNSLKPEDTAVYYCAADLTFGLASSHYQYDYWGQGTQVTVSS
# B14: EPL55 (VHH)
# VHH: B13 VHH with H13Q, T14A
# B15: EPL126 (VHH)
# VHH: QVQLQESGGGLVQAGGSLRLSCAASGFIFRAASMGWYRQSPGNERELVATINSGGFTNYADSVKGRFTISRDNAKNTGYLQMNSLKPEDTAVYFCAATFLRSDGQPPIWGQGTQVTVSS
# B16: EPL120 (VHH)
# VHH: B15 VHH with M34I, G35S, K64L
# B17: EPL164 (VHH)
# VHH: QVQLQESGGGLVQAGGSLRLSCAASGFIFRAASMDWYRQSPGTQPELVATISSTGFTNYANSVKGRFTISRDNAKNTVYLQMNSLKPEDTAVYFCGATFLRSDGQHSIYGQGTQVTVSS
# B18: EPL90 (VHH)
# VHH: B7 VHH with D35A, F40S, S47L, I48V, T50S, G55A, G65A
# notes: llama anti-EpCAM heavy chain only single domain antibody; tested as E. coli periplasmic extract
# B19: EPL118 (VHH)
# VHH: B7 VHH with D35G, Y37F, F40S, S47L, I48V, I51V, G55D, L100V, N109Y
# B20: EPL74 (VHH)
# VHH: QVQLQESGGGLVQAGGSLRLSCAASGSIFGINAMGWYRQAPGKQRESVAFITIGGNTNYLDSVKGRFTISRDNAKNTVYLQMNGLKPEDTAVYYCNTNPPLILTAGGLYWGQGTQVTVSS
# B21: EPL97 (VHH)
# VHH: QVQLQESGGGLVQAGGSLRLSCAASGIIFRGTTMGWFRQAPGKQRESVASISPLGTTSYSGSVEGRFTVSRDNAKNTLFLQMNSLKSEDTAVYYCNAIQVTNVGPRVYWGQGTQVTVSS
# B22: EPL2 (VHH)
# VHH: QVQLQESGGGLVQPGGSLRLSCAASESISSFIAVGWYRQAPGKERELVAGINRSGFTYYTDSVKGRFSISRDNAKNTVLLQMTSLKPEDTAVYYCNAGGLYFSNAYTQGDYWGQGTQVTVSS
# B23: EPL43 (VHH)
# VHH: B22 VHH with P14T
# Biological target: T1, cynomolgus EpCAM protein
# Experiment: colorimetric ELISA
# Excerpt: (§1) A phage display library for expression of heavy variable antibody domains was constructed from circulating B cells. See van der Linden, de Geus, Stok, Bos, van Wassenaar, Verrips, and Frenken. 2000. J Immunol Methods 240:185-195.
row,Cynomolgus EpCAM/Control,Binder
1,11,B1
2,9,B2
3,4,B3
4,11,B4
5,4,B5
6,4,B6
7,3,B7
8,2,B8
9,5,B9
10,8,B10
11,3,B11
12,2,B12
13,6,B13
14,7,B14
15,4,B15
16,4,B16
17,34,B17
18,10,B18
19,4,B19
20,5,B20
21,5,B21
22,24,B22
23,27,B23

# Biological target: T2, human EpCAM protein
# Experiment: colorimetric ELISA
# Excerpt: as §1
row,Human EpCAM/Control,Binder
1,17,B1
2,12,B2
3,8,B3
4,5,B4
5,4,B5
6,8,B6
7,3,B7
8,5,B8
9,4,B9
10,12,B10
11,4,B11
12,3,B12
13,7,B13
14,5,B14
15,5,B15
16,5,B16
17,7,B17
18,10,B18
19,5,B19
20,10,B20
21,8,B21
22,15,B22
23,13,B23
